Laboratory results from US20190142971A1, “FORMULATION AND DELIVERY OF MODIFIED NUCLEOSIDE, NUCLEOTIDE, AND NUCLEIC ACID COMPOSITIONS” (ModernaTX, Inc., priority 2013, published 2019).

How the values were obtained:
Assay type in all cases: in vivo
[1] = test system: Sprague-Dawley rats; assay: Example 35: duration after IM EPO mRNA in rats, serum EPO (Table 61); settings: rats IM 100 μg, 24, 48 and 72 hour
Experimental: The rats were bled 2, 6, 12, 24, 48 and 72 hours after the intramuscular injection to determine the concentration of human EPO in serum at a given time.

[2] = test system: mice; assay: Example 42B: EPO mRNA dose response IM in mice (Table 68); settings: Dose Vol. (μl/mouse) 100, 13 hours
Experimental: The mice were bled at 13 hours after the injection to determine the concentration of the human polypeptide in serum in pg/mL.

[3] = test system: non-human primates (cynomolgus monkey); assay: Example 22: NHP cytokine interferon-alpha (Table 47)
Experimental: LNP formulations, shown in Table 33 (above), were administered to non-human primates (NHP) (cynomolgus monkey) (n=2) as intravenous injection (IV). The NHP were administered a single modified mRNA IV dose of 0.5 mg/kg, 0.05 mg/kg or 0.005 mg/kg of G-CSF or EPO in a dose volume of 0.5 mL/kg. The NHPs were bled before dosing with the modified mRNA LNP formulations to determine protein expression in the serum and a baseline complete blood count. After administration with the G-CSF modified mRNA formulation the NHP were bled at 8, 24, 48 and 72 hours to determined protein expression. After administration with the EPO modified mRNA formulation the NHP were bled at 8, 24, 48, 72 hours and 7 days to determined protein expression.

[4] = test system: mice; assay: Example 18: time course LNP IV in mice, serum EPO/G-CSF ELISA (Table 35); settings: for EPO / G-CSF Serum Concentration: mice, LNP IV
Experimental: (§1) Formulations, listed in Table 33, were characterized by particle size, zeta potential, and encapsulation.
LNP formulations, shown in Table 33 (above), were administered to mice (n=5) intravenously (IV) at a single modified mRNA dose of 0.5, 0.05 or 0.005 mg/kg. The mice were bled at 8 hours, 24 hours, 72 hours and 6 days after they were administered with G-CSF or EPO modified mRNA formulations to determine protein expression using ELISA.

[5] = test system: non-human primates (cynomolgus monkey); assay: Example 22: NHP serum chemistry ALT and AST (Tables 45, 46)
[6] = test system: rats; assay: Example 17: LNP IV, IM, SC in rats, serum EPO/G-CSF ELISA (Table 34); settings: for EPO / G-CSF Serum Concentration: LNP 0.05 mg/kg
Experimental: as §1
LNP formulations, shown in Table 33 (above), were administered to rats (n=5) intravenously (IV), intramuscularly (IM) or subcutaneously (SC) at a single modified mRNA dose of 0.05 mg/kg. A control group of rats (n=4) was untreated. […] The rats administered EPO modified mRNA intravenously were also bled at 7 days.

[7] = test system: BALB/C mice; assay: Example 59: G-CSF mRNA IM in mice, serum human G-CSF and mouse IFN-alpha ELISA (Table 93)
[8] = 0.005 mg/kg, 4 days, Female NHP
[9] = 0.005 mg/kg, Pre-dose, Female NHP
[10] = 0.005 mg/kg, Pre-dose, Male NHP
[11] = 0.05 mg/kg, Pre-dose, Female NHP
[12] = 0.5 mg/kg, Pre-dose, Female NHP
[13] = 0.005 mg/kg, 2 days, Female NHP
[14] = 0.005 mg/kg, 7 days, Female NHP
[15] = 0.005 mg/kg, 14 days, Female NHP
[16] = 0.05 mg/kg, 14 days, Female NHP
[17] = I.M., 200 ug/mouse (R848 75 ug/mouse), 50 ul, 8 hours after dosing

## Luciferase: luciferase mRNA, SEQ ID NO: 14, Cap1, fully modified with 5-methylcytosine and pseudouridine
[1]
  human EPO in serum, Avg.: 37.2 pg/mL
  human EPO in serum, Geometric-mean: 29.2 pg/mL
[2]
  Average Protein Product, serum: 0.0 pg/mL

B1: G-CSF: modified mRNA encoding human G-CSF, SEQ ID NO: 4, Cap1, fully modified with 5-methylcytosine and pseudouridine; LNP-formulated in Examples 16-22 (nucleic acid)
chain: GGGAAAUAAGAGAGAAAAGAAGAGUAAGAAGAAAUAUAAGAGCCACCAUGGCCGGUCCCGCGACCCAAAGCCCCAUGAAACUUAUGGCCCUGCAGUUGCUGCUUUGGCACUCGGCCCUCUGGACAGUCCAAGAAGCGACUCCUCUCGGACCUGCCUCAUCGUUGCCGCAGUCAUUCCUUUUGAAGUGUCUGGAGCAGGUGCGAAAGAUUCAGGGCGAUGGAGCCGCACUCCAAGAGAAGCUCUGCGCGACAUACAAACUUUGCCAUCCCGAGGAGCUCGUACUGCUCGGGCACAGCUUGGGGAUUCCCUGGGCUCCUCUCUCGUCCUGUCCGUCGCAGGCUUUGCAGUUGGCAGGGUGCCUUUCCCAGCUCCACUCCGGUUUGUUCUUGUAUCAGGGACUGCUGCAAGCCCUUGAGGGAAUCUCGCCAGAAUUGGGCCCGACGCUGGACACGUUGCAGCUCGACGUGGCGGAUUUCGCAACAACCAUCUGGCAGCAGAUGGAGGAACUGGGGAUGGCACCCGCGCUGCAGCCCACGCAGGGGGCAAUGCCGGCCUUUGCGUCCGCGUUUCAGCGCAGGGCGGGUGGAGUCCUCGUAGCGAGCCACCUUCAAUCAUUUUUGGAAGUCUCGUACCGGGUGCUGAGACAUCUUGCGCAGCCGUGAAGCGCUGCCUUCUGCGGGGCUUGCCUUCUGGCCAUGCCCUUCUUCUCUCCCUUGCACCUGUACCUCUUGGUCUUUGAAUAAAGCCUGAGUAGGAAG
modifications: Cap1, 5-methylcytosine, pseudouridine
[3]; [8]
  IFN-alpha: 0 pg/mL
[3]; 0.005 mg/kg, 4 days, Male NHP
  IFN-alpha: 0 pg/mL
[3]; 0.005 mg/kg, Day 1 + 8 hr, Female NHP
  IFN-alpha: 0 pg/mL
[3]; 0.005 mg/kg, Day 1 + 8 hr, Male NHP
  IFN-alpha: 0 pg/mL
[3]; [9]
  IFN-alpha: 0 pg/mL
[3]; [10]
  IFN-alpha: 0 pg/mL
[3]; 0.05 mg/kg, 4 days, Female NHP
  IFN-alpha: 0 pg/mL
[3]; 0.05 mg/kg, 4 days, Male NHP
  IFN-alpha: 0 pg/mL
[3]; 0.05 mg/kg, Day 1 + 8 hr, Female NHP
  IFN-alpha: 0 pg/mL
[3]; 0.05 mg/kg, Day 1 + 8 hr, Male NHP
  IFN-alpha: 0 pg/mL
[3]; [11]
  IFN-alpha: 0 pg/mL
[3]; 0.05 mg/kg, Pre-dose, Male NHP
  IFN-alpha: 0 pg/mL
[3]; 0.5 mg/kg, 4 days, Female NHP
  IFN-alpha: 0 pg/mL
[3]; 0.5 mg/kg, 4 days, Male NHP
  IFN-alpha: 0 pg/mL
[3]; 0.5 mg/kg, Day 1 + 8 hr, Female NHP
  IFN-alpha: 529.2 pg/mL
[3]; 0.5 mg/kg, Day 1 + 8 hr, Male NHP
  IFN-alpha: 503.8 pg/mL
[3]; [12]
  IFN-alpha: 0 pg/mL
[3]; 0.5 mg/kg, Pre-dose, Male NHP
  IFN-alpha: 0 pg/mL
[4]; mice IV, 0.005 mg/kg and 0.05 mg/kg
  protein expression detectable out to: 72 h
[4]; 0.005 mg/kg, 8 hours
  EPO / G-CSF Serum Concentration: 11,550.6 pg/ml
[4]; 0.005 mg/kg, 24 hours
  EPO / G-CSF Serum Concentration: 5,068.9 pg/ml
[4]; 0.05 mg/kg, 8 hours
  EPO / G-CSF Serum Concentration: 462,312.5 pg/ml
[4]; 0.05 mg/kg, 24 hours
  EPO / G-CSF Serum Concentration: 80,903.8 pg/ml
[4]; 0.5 mg/kg, 8 hours
  EPO / G-CSF Serum Concentration: >1,250,000 pg/ml
[4]; 0.5 mg/kg, 24 hours
  EPO / G-CSF Serum Concentration: 495,812.5 pg/ml
[4]; 0.5 mg/kg, 72 hours
  EPO / G-CSF Serum Concentration: 1,325.6 pg/ml
[5]; [13]
  ALT: 32 U/L
  AST: 34 U/L
[5]; 0.005 mg/kg, 2 days, Male NHP
  ALT: 39 U/L
  AST: 70 U/L
[5]; [8]
  ALT: 58 U/L
  AST: 36 U/L
[5]; 0.005 mg/kg, 4 days, Male NHP
  ALT: 48 U/L
  AST: 39 U/L
[5]; [14]
  ALT: 55 U/L
  AST: 31 U/L
[5]; 0.005 mg/kg, 7 days, Male NHP
  ALT: 29 U/L
  AST: 28 U/L
[5]; [15]
  ALT: 46 U/L
  AST: 20 U/L
[5]; 0.005 mg/kg, 14 days, Male NHP
  ALT: 44 U/L
  AST: 39 U/L
[5]; [9]
  ALT: 51 U/L
  AST: 54 U/L
[5]; [10]
  ALT: 43 U/L
  AST: 35 U/L
[5]; 0.05 mg/kg, 2 days, Female NHP
  ALT: 39 U/L
  AST: 34 U/L
[5]; 0.05 mg/kg, 2 days, Male NHP
  ALT: 82 U/L
  AST: 95 U/L
[5]; 0.05 mg/kg, 4 days, Female NHP
  ALT: 56 U/L
  AST: 42 U/L
[5]; 0.05 mg/kg, 4 days, Male NHP
  ALT: 88 U/L
  AST: 69 U/L
[5]; 0.05 mg/kg, 7 days, Female NHP
  ALT: 73 U/L
  AST: 52 U/L
[5]; 0.05 mg/kg, 7 days, Male NHP
  ALT: 73 U/L
  AST: 62 U/L
[5]; [16]
  ALT: 31 U/L
  AST: 20 U/L
[5]; 0.05 mg/kg, 14 days, Male NHP
  ALT: 50 U/L
  AST: 59 U/L
[5]; [11]
  ALT: 53 U/L
  AST: 33 U/L
[5]; 0.05 mg/kg, Pre-dose, Male NHP
  ALT: 58 U/L
  AST: 99 U/L
[5]; 0.5 mg/kg, 2 days, Female NHP
  ALT: 209 U/L
  AST: 294 U/L
[5]; 0.5 mg/kg, 2 days, Male NHP
  ALT: 63 U/L
  AST: 196 U/L
[5]; 0.5 mg/kg, 4 days, Female NHP
  ALT: 98 U/L
  AST: 63 U/L
[5]; 0.5 mg/kg, 4 days, Male NHP
  ALT: 70 U/L
  AST: 67 U/L
[5]; 0.5 mg/kg, 7 days, Female NHP
  ALT: 149 U/L
  AST: 68 U/L
[5]; 0.5 mg/kg, 7 days, Male NHP
  ALT: 41 U/L
  AST: 53 U/L
[5]; 0.5 mg/kg, 14 days, Female NHP
  ALT: 145 U/L
  AST: 67 U/L
[5]; 0.5 mg/kg, 14 days, Male NHP
  ALT: 43 U/L
  AST: 47 U/L
[5]; [12]
  ALT: 216 U/L
  AST: 47 U/L
[5]; 0.5 mg/kg, Pre-dose, Male NHP
  ALT: 29 U/L
  AST: 32 U/L
[6]; IV
  protein expression detectable out to: 7 days
[6]; IM, 2 hours
  EPO / G-CSF Serum Concentration: 1620.4 pg/mL
[6]; IM, 8 hours
  EPO / G-CSF Serum Concentration: 7910.4 pg/mL
[6]; IM, 24 hours
  EPO / G-CSF Serum Concentration: 893.3 pg/mL
[6]; IM, 48 hours
  EPO / G-CSF Serum Concentration: OSC
[6]; IM, 5 days
  EPO / G-CSF Serum Concentration: OSC
[6]; IV, 2 hours
  EPO / G-CSF Serum Concentration: 31,331.9 pg/ml
[6]; IV, 8 hours
  EPO / G-CSF Serum Concentration: 70,532.4 pg/ml
[6]; IV, 24 hours
  EPO / G-CSF Serum Concentration: 5,738.6 pg/ml
[6]; IV, 48 hours
  EPO / G-CSF Serum Concentration: 233.8 pg/mL
[6]; IV, 5 days
  EPO / G-CSF Serum Concentration: 60.4 pg/mL
[6]; SC, 2 hours
  EPO / G-CSF Serum Concentration: 80.3 pg/mL
[6]; SC, 8 hours
  EPO / G-CSF Serum Concentration: 164.2 pg/mL
[6]; SC, 24 hours
  EPO / G-CSF Serum Concentration: OSC
[6]; SC, 48 hours
  EPO / G-CSF Serum Concentration: OSC
[6]; SC, 5 days
  EPO / G-CSF Serum Concentration: OSC
[6]; subcutaneous and intramuscular
  protein expression detectable to: at least 8 hours
[7]; [17]
  G-CSF protein (human, serum): 356.5 pg/mL
  IFN-alpha expression (mouse, serum): 8.87 pg/mL
[7]; I.M., 200 ug/mouse (R848 75 ug/mouse), 8 hours after dosing
  PC Ratio (Protein: Cytokine Ratio): 40
[7]; IM, 8 hours
  mouse IFN-alpha in the serum (cytokine response): low but detectable cytokine response
